B1: Ac-Ile-Ser-Leu-Leu-Asp-(d)Ala-Gln-Ser-NH2 (peptide)
peptide: ISLLDAQS
HELM: PEPTIDE1{[ac].I.S.L.L.D.[dA].Q.S.[am]}$$$$V2.0
SMILES: CC[C@H](C)[C@H](NC(C)=O)C(=O)N[C@@H](CO)C(=O)N[C@@H](CC(C)C)C(=O)N[C@@H](CC(C)C)C(=O)N[C@@H](CC(=O)O)C(=O)N[C@H](C)C(=O)N[C@@H](CCC(N)=O)C(=O)N[C@@H](CO)C(N)=O
B2: Palm-Ile-Ser-(d)Leu-Leu-Asp-(d)Ala-Gln-Ser-NH2 (peptide)
peptide: ISLLDAQS
HELM: PEPTIDE1{[CCCCCCCCCCCCCCCC(=O)[*:2]].I.S.[dL].L.D.[dA].Q.S.[am]}$$$$V2.0
SMILES: CCCCCCCCCCCCCCCC(=O)N[C@H](C(=O)N[C@@H](CO)C(=O)N[C@H](CC(C)C)C(=O)N[C@@H](CC(C)C)C(=O)N[C@@H](CC(=O)O)C(=O)N[C@H](C)C(=O)N[C@@H](CCC(N)=O)C(=O)N[C@@H](CO)C(N)=O)[C@@H](C)CC
B3: Ac-Ile-Ser-(d)Leu-Leu-Asp-(d)Ala-Gln-Ser-NH2 (peptide)
peptide: ISLLDAQS
HELM: PEPTIDE1{[ac].I.S.[dL].L.D.[dA].Q.S.[am]}$$$$V2.0
SMILES: CC[C@H](C)[C@H](NC(C)=O)C(=O)N[C@@H](CO)C(=O)N[C@H](CC(C)C)C(=O)N[C@@H](CC(C)C)C(=O)N[C@@H](CC(=O)O)C(=O)N[C@H](C)C(=O)N[C@@H](CCC(N)=O)C(=O)N[C@@H](CO)C(N)=O
B4: Palm-Ile-Ser-Leu-Leu-Asp-(d)Ala-Gln-Ser-NH2 (peptide)
peptide: ISLLDAQS
HELM: PEPTIDE1{[CCCCCCCCCCCCCCCC(=O)[*:2]].I.S.L.L.D.[dA].Q.S.[am]}$$$$V2.0
SMILES: CCCCCCCCCCCCCCCC(=O)N[C@H](C(=O)N[C@@H](CO)C(=O)N[C@@H](CC(C)C)C(=O)N[C@@H](CC(C)C)C(=O)N[C@@H](CC(=O)O)C(=O)N[C@H](C)C(=O)N[C@@H](CCC(N)=O)C(=O)N[C@@H](CO)C(N)=O)[C@@H](C)CC
B5: Palm-Ile-Ser-Leu-Leu-Asp-Ala-Gln-Ser-NH2 (peptide)
peptide: ISLLDAQS
HELM: PEPTIDE1{[CCCCCCCCCCCCCCCC(=O)[*:2]].I.S.L.L.D.A.Q.S.[am]}$$$$V2.0
SMILES: CCCCCCCCCCCCCCCC(=O)N[C@H](C(=O)N[C@@H](CO)C(=O)N[C@@H](CC(C)C)C(=O)N[C@@H](CC(C)C)C(=O)N[C@@H](CC(=O)O)C(=O)N[C@@H](C)C(=O)N[C@@H](CCC(N)=O)C(=O)N[C@@H](CO)C(N)=O)[C@@H](C)CC
B6: Pamitoyl-Ser-Tyr-Ser-Nle-Glu-His-DPhe-Arg-(3-amino-3-(biphenyl) propionic acid)-Gly-Lys-DPro-Val-NH-(CH2)3-(OCH2CH2)2-CH2-NH2, coupled to capsules (peptide)
peptide: SYSXEHFRXGKPV
modifications: N-terminal palmitoyl; Nle at 4 (X); D-Phe at 7; 3-amino-3-(biphenyl) propionic acid at 9 (X); D-Pro at 12; C-terminal NH-(CH2)3-(OCH2CH2)2-CH2-NH2
notes: Coupled to the outer surface of fluorescent polymer capsules in the assay; also called peptide of formula (I), AA1 = 3-amino-3-(biphenyl) propionic acid
B7: Pamitoyl-Ser-Tyr-Ser-Nle-Glu-His-DPhe-Arg-(3-amino-3-(1-naphthyl) propionic acid)-Gly-Lys-DPro-Val-NH-(CH2)3-(OCH2CH2)2-CH2-NH2, coupled to capsules (peptide)
peptide: SYSXEHFRXGKPV
modifications: N-terminal palmitoyl; Nle at 4 (X); D-Phe at 7; 3-amino-3-(1-naphthyl) propionic acid at 9 (X); D-Pro at 12; C-terminal NH-(CH2)3-(OCH2CH2)2-CH2-NH2
notes: Coupled to the outer surface of fluorescent polymer capsules in the assay; also called peptide of formula (I), AA1 = 3-amino-3-(1-naphthyl) propionic acid
B8: Pamitoyl-Ser-Tyr-Ser-Nle-Glu-His-DPhe-Arg-(L-3,4-dihydroxyphenylalanine)-Gly-Lys-DPro-Val-NH-(CH2)3-(OCH2CH2)2-CH2-NH2, coupled to capsules (peptide)
peptide: SYSXEHFRXGKPV
modifications: N-terminal palmitoyl; Nle at 4 (X); D-Phe at 7; L-3,4-dihydroxyphenylalanine at 9 (X); D-Pro at 12; C-terminal NH-(CH2)3-(OCH2CH2)2-CH2-NH2
notes: Coupled to the outer surface of fluorescent polymer capsules in the assay; also called peptide of formula (I), AA1 = L-3,4-dihydroxyphenylalanine
B9: Pamitoyl-Ser-Tyr-Ser-Nle-Glu-His-DPhe-Arg-His-Gly-Lys-DPro-Val-NH-(CH2)3-(OCH2CH2)2-CH2-NH2, coupled to capsules (peptide)
peptide: SYSXEHFRHGKPV
modifications: N-terminal palmitoyl; Nle at 4 (X); D-Phe at 7; D-Pro at 12; C-terminal NH-(CH2)3-(OCH2CH2)2-CH2-NH2
notes: Coupled to the outer surface of fluorescent polymer capsules in the assay; Stereochemistry of the residue at 9 is not specified; also called peptide of formula (I), AA1 = Histidine
B10: Pamitoyl-Ser-Tyr-Ser-Nle-Glu-His-DPhe-Arg-Phe-Gly-Lys-DPro-Val-NH-(CH2)3-(OCH2CH2)2-CH2-NH2, coupled to capsules (peptide)
peptide: SYSXEHFRFGKPV
modifications: N-terminal palmitoyl; Nle at 4 (X); D-Phe at 7; D-Pro at 12; C-terminal NH-(CH2)3-(OCH2CH2)2-CH2-NH2
notes: Coupled to the outer surface of fluorescent polymer capsules in the assay; Stereochemistry of the residue at 9 is not specified; also called peptide of formula (I), AA1 = Phenylalanine
B11: Pamitoyl-Ser-Tyr-Ser-Nle-Glu-His-DPhe-Arg-Tyr-Gly-Lys-DPro-Val-NH-(CH2)3-(OCH2CH2)2-CH2-NH2, coupled to capsules (peptide)
peptide: SYSXEHFRYGKPV
modifications: N-terminal palmitoyl; Nle at 4 (X); D-Phe at 7; D-Pro at 12; C-terminal NH-(CH2)3-(OCH2CH2)2-CH2-NH2
notes: Coupled to the outer surface of fluorescent polymer capsules in the assay; Stereochemistry of the residue at 9 is not specified; also called peptide of formula (I), AA1 = Tyrosine
B12: Pamitoyl-Ser-Tyr-Ser-Nle-Glu-His-DPhe-Arg-(5-hydroxytryptophan)-Gly-Lys-DPro-Val-NH-(CH2)3-(OCH2CH2)2-CH2-NH2, coupled to capsules (peptide)
peptide: SYSXEHFRXGKPV
modifications: N-terminal palmitoyl; Nle at 4 (X); D-Phe at 7; 5-hydroxytryptophan at 9 (X); D-Pro at 12; C-terminal NH-(CH2)3-(OCH2CH2)2-CH2-NH2
notes: Coupled to the outer surface of fluorescent polymer capsules in the assay; also called peptide of formula (I), AA1 = 5-hydroxytryptophan
B13: Pamitoyl-Ser-Tyr-Ser-Nle-Glu-His-DPhe-Arg-(3-(2-Naphthyl)-D-alanine)-Gly-Lys-DPro-Val-NH-(CH2)3-(OCH2CH2)2-CH2-NH2, coupled to capsules (peptide)
peptide: SYSXEHFRXGKPV
modifications: N-terminal palmitoyl; Nle at 4 (X); D-Phe at 7; 3-(2-Naphthyl)-D-alanine at 9 (X); D-Pro at 12; C-terminal NH-(CH2)3-(OCH2CH2)2-CH2-NH2
notes: Coupled to the outer surface of fluorescent polymer capsules in the assay; also called peptide of formula (I), AA1 = 3-(2-Naphthyl)-D-alanine

These binders were tested against Mushroom Tyrosinase (mushroom) (assay: cell-based or functional assay).

Binder | % INHIBITION TYROSINASE [%]
B1 | 31
B2 | 48
B3 | 40
B4 | 42
B5 | 39
Ac-ISLLDAQS-NH2 [Ac-Ile-Ser-Leu-Leu-Asp-Ala-Gln-Ser-NH2] | 28

These binders were tested against T1, Melanocortin receptor 1 (MC1R) on melanocytes (human, UniProt Q01726 1-317) (assay: flow cytometry, cell-associated fluorescence of peptide-targeted capsules (50 µg/mL, 37° C., 3 h) on melanocytes in a mixed cell population).
T1 construct: whole, on cells; also called MC1 receptor; MCR1 receptors on the melanocyte
T1 sequence (Q01726 whole entry): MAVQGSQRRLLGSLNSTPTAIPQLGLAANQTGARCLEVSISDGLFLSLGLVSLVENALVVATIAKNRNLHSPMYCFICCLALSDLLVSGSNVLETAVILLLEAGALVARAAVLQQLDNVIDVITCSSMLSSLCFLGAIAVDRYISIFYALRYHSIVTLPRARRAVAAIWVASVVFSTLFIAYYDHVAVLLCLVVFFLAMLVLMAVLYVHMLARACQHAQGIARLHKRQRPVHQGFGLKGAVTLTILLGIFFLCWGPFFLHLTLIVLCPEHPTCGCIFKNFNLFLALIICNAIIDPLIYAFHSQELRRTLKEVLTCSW
Experimental: Distinct types of cells were incubated with the capsules of the invention (50 μg/mL) which have been targeted with different peptides of formula (Ia) or non-targeted capsules (50 μg/mL) at 37° C. for 3 h. The peptides of formula (I) used to target the capsules in this example are peptides of formula Pamitoyl-Ser-Tyr-Ser-Nle-Glu-His-DPhe-Arg-(AA₁)-Gly-Lys-DPro-Val-NH—(CH₂)₃—(OCH₂CH₂)₂—CH₂—NH₂ wherein the nature of the aminoacid in position 9 (AA₁) is indicated in the first column of table 3. Cells were washed and stained with receptor-specific antibody or isotype control antibody to specifically detect distinct types of cells. Subsequently, cells were analyzed by flow cytometry on a FacsCalibur. The cell associated fluorescence was calculated by dividing the mean cell fluorescence intensity (mfi) for a given sample by the mfi of melanocytes incubated with targeted capsules, which was set at 100% (see FIG. 5 and table 4).

Binder | Cell specific binding (%)
B6 | 74
B7 | 75
B8 | 80
B9 | 58
B10 | 85
B11 | 80
B12 | 73
B13 | 71

Reference: patent US20160250128A1 (INFINITEC ACTIVOS S L, published 2016)
